Measured values: doi:10.1101/2025.08.20.671286

Molecular target: apoptosis-inducing factor, mitochondrial (AIFM1) (human) (UniProt O95831)
Experiment: cross-linking

stoichiometry N: 2
Substance: apoptosis-inducing factor, mitochondrial (AIFM1) (from UniProt O95831 103-613) (natural protein)
